We go through two molecules from publication PMC5376495 (ACS combinatorial science, 2017).

Where no end group is shown, it is not given here. [ ]: non-standard residue; d: D form. Lys(Me3) = C[N+](C)(C)CCCC[C@H](N)C(=O)O

This test deals with His-tagged EED (His6X-EED), full length (UniProt O75530 1-441). Briefly: ITC. (ITC needs no label: the signal is the heat of the interaction.)
Chain of His-tagged EED (His6X-EED), full length (O75530 whole entry): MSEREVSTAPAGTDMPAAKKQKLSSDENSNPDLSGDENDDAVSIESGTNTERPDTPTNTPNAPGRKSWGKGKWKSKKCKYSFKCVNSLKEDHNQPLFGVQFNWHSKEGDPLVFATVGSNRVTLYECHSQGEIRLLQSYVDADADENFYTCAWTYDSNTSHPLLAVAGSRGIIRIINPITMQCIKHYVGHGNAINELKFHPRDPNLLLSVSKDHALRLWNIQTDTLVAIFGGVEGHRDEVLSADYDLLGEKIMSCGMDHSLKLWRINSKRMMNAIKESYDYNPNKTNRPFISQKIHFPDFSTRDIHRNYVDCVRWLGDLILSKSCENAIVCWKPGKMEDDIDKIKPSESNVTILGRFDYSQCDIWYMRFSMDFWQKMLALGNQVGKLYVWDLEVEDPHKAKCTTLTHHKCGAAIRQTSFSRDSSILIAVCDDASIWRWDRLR

B1: UNC5115 (peptide)
chain: XKF
modifications: N-terminal (2S,3aS,7aS)-octahydro-1H-indole cap; methyl-isopropyl lysine (Kme,iPr); C-terminal piperidinyl ring in place of leucine
On to B1, for which the Kd was determined as 1.14 ± 0.14 µM. In the case of QR[Lys(Me3)]FA (peptide, UniProt Q92833 114-118, looked up) [Jarid2_(114–118)K116me3] it was 8.82 ± 2.06 µM.

By Kd is commonly meant the constant that tells how readily two partners part at equilibrium.
